This note sets out measurements from US20190127444A1 (NEW YORK UNIVERSITY, published 2019).

In assay [1] the target is T1, LukE, recombinant protein used for HDX mapping (Staphylococcus aureus, UniProt Q2FXB0 24-306).
T1 construct: also called LukE (HDX)
T1 chain: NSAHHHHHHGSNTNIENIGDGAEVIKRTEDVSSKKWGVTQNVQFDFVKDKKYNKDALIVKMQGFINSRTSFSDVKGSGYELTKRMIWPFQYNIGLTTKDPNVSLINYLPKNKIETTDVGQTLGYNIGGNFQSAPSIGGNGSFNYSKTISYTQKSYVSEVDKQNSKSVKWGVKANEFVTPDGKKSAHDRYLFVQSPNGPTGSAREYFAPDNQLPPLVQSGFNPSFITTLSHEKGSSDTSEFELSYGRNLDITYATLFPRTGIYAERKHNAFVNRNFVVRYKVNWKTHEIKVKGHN
Kind of assay: HDX-MS.

Assay [2] addresses T2, LukAB toxoid variant (LukA E323A), recombinant polyhistidine-tagged (S. aureus, UniProt Q2FFA2 28-351; P21224 30-338).
T2 sequence 1: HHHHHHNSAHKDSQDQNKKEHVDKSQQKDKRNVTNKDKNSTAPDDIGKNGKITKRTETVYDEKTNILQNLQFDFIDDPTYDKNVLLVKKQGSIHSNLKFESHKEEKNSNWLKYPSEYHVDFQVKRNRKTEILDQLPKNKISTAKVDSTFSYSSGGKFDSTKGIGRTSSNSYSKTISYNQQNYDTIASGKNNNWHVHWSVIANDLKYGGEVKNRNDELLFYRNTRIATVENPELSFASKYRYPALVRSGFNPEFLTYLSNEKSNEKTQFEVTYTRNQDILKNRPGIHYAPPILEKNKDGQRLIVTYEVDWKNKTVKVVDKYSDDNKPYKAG
T2 sequence 2: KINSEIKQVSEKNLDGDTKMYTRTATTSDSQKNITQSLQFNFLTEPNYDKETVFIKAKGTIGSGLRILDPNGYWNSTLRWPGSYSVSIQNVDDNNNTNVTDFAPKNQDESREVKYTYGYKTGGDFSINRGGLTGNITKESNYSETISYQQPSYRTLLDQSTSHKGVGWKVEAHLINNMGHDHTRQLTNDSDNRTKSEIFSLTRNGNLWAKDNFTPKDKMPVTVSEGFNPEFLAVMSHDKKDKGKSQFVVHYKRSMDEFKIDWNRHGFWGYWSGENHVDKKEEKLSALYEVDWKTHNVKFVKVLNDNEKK
Kind of assay: BLI, FN3 protein on streptavidin pins, LukAB in solution.

Assay [3] concerns the target T2, LukAB toxoid variant (LukA E323A), …. Kind of assay: SPR (Biacore T200).
Assay [4] has the same target. Kind of assay: SPR (Biacore T200), single cycle kinetics, 1:1 model.
For another assay, the target named is TD peptide. Kind of assay: ELISA, peptide captured on streptavidin.
In assay [5] the target is T2, LukAB toxoid variant (LukA E323A), …. Kind of assay: ELISA and neutralisation assay.
Assay [6] addresses T3, recombinant Protein A (ProSpec-TanyTechnoGene Ltd.), biotinylated (S. aureus, UniProt P38507 37-327).
T3 construct: also called SpA
Kind of assay: ELISA, biotinylated Protein A on streptavidin plate.
Experimental: Characterization of Protein A binding was determined by ELISA. Briefly, plates were coated with streptavidin (5 μg/mL in PBS, 50 μL per well) and incubated overnight at 4° C. Plates were washed three times with ELISA wash buffer (0.15M NaCl, 0.02% Tween-20) and then coated with biotinylated Protein A at 2 μg/mL (50 L per well) in PBS for one hour at room temperature. Plates were then washed three times with ELISA wash buffer and then blocked with ELISA blocking buffer (3% BSA in PBS, 200 μL per well). Test articles were then added in a 3-fold dilution series starting at 10 μg/mL and the plates incubated at room temperature for one hour. Plates were then washed three times with ELISA wash buffer and 50 mL per well of HRP-conjugated goat anti-human kappa light chain (Millipore AP502P) added at a 1:15,000 dilution in 3% BSA in PBS and the plates incubated for one hour at room temperature. Plates were then washed five times with ELISA wash buffer and bound HRP detected using the 3,3′,5,5′-Tetramethylbenzidine (TMB; Fitzgerald) as a chromogenic substrate.

Assay [7] deals with T4, LukE, recombinant parental form with amino-terminal poly-histidine and streptavidin binding sequences (S. aureus).
T4 chain: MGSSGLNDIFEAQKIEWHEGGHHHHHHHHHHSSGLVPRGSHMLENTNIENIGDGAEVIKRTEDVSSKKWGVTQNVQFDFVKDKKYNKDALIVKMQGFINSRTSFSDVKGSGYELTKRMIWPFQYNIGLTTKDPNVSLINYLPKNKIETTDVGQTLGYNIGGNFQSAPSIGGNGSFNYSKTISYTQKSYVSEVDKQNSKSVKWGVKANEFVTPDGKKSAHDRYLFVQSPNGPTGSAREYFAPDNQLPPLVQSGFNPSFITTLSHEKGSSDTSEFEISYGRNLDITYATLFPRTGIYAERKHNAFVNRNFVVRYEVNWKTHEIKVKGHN
Kind of assay: BLI, biotinylated LukE on streptavidin pins, Luk26 FN3 at 10 ug/mL.

B1: Luk26 LukE binding FN3 domain (designed binder)
chain: LPAPKNLVVSRVTEDSARLSWTAPDAAFDSFHIEYAEPWVWGEAIVLTVPGSERSYDLTGLKPGTEYVVFIGGVKGGHNSTPLSAIFTT
For B1, the binding result in assay [1] is “binds”.

B2: TENCON-His-SA (designed binder)
chain: MLPAPKNLVVSRVTEDSARLSWTAPDAAFDSFLIQYQESEKVGEAIVLTVPGSERSYDLTGLKPGTEYTVSIYGVKGGHRSNPLSAIFTTGGHHHHHHGGGLNDIFEAQKIEWHE
notes: also called parental control FN3 domain protein
In the case of B2, in assay [2], the binding result is “no binding (tested: 10 ug/mL)”.

B3: mAb 5133 PRASA A6 HC-L4-E-L4-AB (Table 1 Construct 11) (bispecific antibody)
heavy: EVQLVETGGGLVKPGGSLRLSCSASRFSFRDYYMTWIRQAPGKGPEWVSHISGSGSTIYYADSVRGRFTISRDNAKSSLYLQMDSLQADDTAVYYCARGGRATSYYWVHWGPGTLVTVSSASTKGPSVFPLAPSSKSTSGGTAALGCLVKDYFPEPVTVSWNSGALTSGVHTFPAVLQSSGLYSLSSVVTVPSSSLGTQTYICNVNHKPSNTKVDKKVEPKSCDKTHTCPPCPAPPVAGPDVFLFPPKPKDTLMISRTPEVTCVVVDVSHEDPEVKFNWYVDGVEVHNAKTKPREEQYNSTYRVVSVLTVLHQDWLNGKEYKCKVSNAALPAPIAKTISKAKGQPREPQVYTLPPSRDELTKNQVSLTCLVKGFYPSDIAVEWESNGQPENNYKTTPPVLDSDGSFFLYSKLTVDKSRWQQGNVFSCSVMHEALHNRFTQKSLSLSPGKGGGGSGGGGSGGGGSGGGGSMLPAPKNLVVSRVTEDSARLSWTAPDAAFDSFHIEYAEPWVWGEAIVLTVPGSERSYDLTGLKPGTEYVVFIGGVKGGHNSTPLSAIFTTGGGGSGGGGSGGGGSGGGGSMLPAPKNLVVSRVTEDSARLSWTAPDAAFDSFWITYEEKFYRGEAIVLTVPGSERSYDLTGLKPGTEYKVWIVGVKGGQGSWPLSAIFTT
light: EIVLTQSPATLSLSPGERATLSCRASQSVSGYLGWYQQKPGQAPRLLIYGASSRATGIPDRFSGSGSGTDFTLTISRLEPEDFAVYYCQQYGSSPLTFGGGTKLEIKRTVAAPSVFIFPPSDEQLKSGTASVVCLLNNFYPREAKVQWKVDNALQSGNSQESVTEQDSKDSTYSLSSTLTLSKADYEKHKVYACEVTHQGLSSPVTKSFNRGEC
notes: also called CR5133 PRASA A6 HC-L4-E-L4-AB; 4×4 variant
Regarding B3, in assay [3], the “fold higher binding affinity than Construct 6” value was around 6 fold. Besides, the Kd in assay [4] came out at 0.012 nM.

B4: mAb 5133 (CR5133, IgG1 wt; Table 1 Construct 1) (antibody)
heavy: not shown
light: B3 light
As for B4, the binding result in the assay with TD peptide is “no binding”.

B5: Luk17 LukAB binding FN3 domain (designed binder)
chain: LPAPKNLVVSRVTEDSARLSWTAPDAAFDSFWITYEEKFYRGEAIVLTVPGSERSYDLTGLKPGTEYKVWIVGVKGGQGSWPLSAIFTT
Take B5: the binding result in assay [5] is given as “binds”.

B6: anti-LTA (Pagibaximab) PRASA A6 (Table 1 Construct 33) (antibody, human IgG1, kappa)
heavy: EVMLVESGGGLVQPKGSLKLSCAASGFTFNNYAMNWVRQAPGKGLEWVARIRSKSNNYATFYADSVKDRFTISRDDSQSMLYLQMNNLKTEDTAMYYCVRRGASGIDYAMDYWGQGTSLTVSSASTKGPSVFPLAPSSKSTSGGTAALGCLVKDYFPEPVTVSWNSGALTSGVHTFPAVLQSSGLYSLSSVVTVPSSSLGTQTYICNVNHKPSNTKVDKKVEPKSCDKTHTCPPCPAPPVAGPDVFLFPPKPKDTLMISRTPEVTCVVVDVSHEDPEVKFNWYVDGVEVHNAKTKPREEQYNSTYRVVSVLTVLHQDWLNGKEYKCKVSNAALPAPIAKTISKAKGQPREPQVYTLPPSRDELTKNQVSLTCLVKGFYPSDIAVEWESNGQPENNYKTTPPVLDSDGSFFLYSKLTVDKSRWQQGNVFSCSVMHEALHNRFTQKSLSLSPGK
light: DIVLSQSPAILSASPGEKVTMTCRASSSVNYMHWYQQKPGSSPKPWISATSNLASGVPARFSGSGSGTSYSLTISRVEAEDAATYYCQQWSSNPPTFGGGTMLEIKRTVAAPSVFIFPPSDEQLKSGTASVVCLLNNFYPREAKVQWKVDNALQSGNSQESVTEQDSKDSTYSLSSTLTLSKADYEKHKVYACEVTHQGLSSPVTKSFNRGEC
notes: also called LTA PRASA A6; PRASA A6 variant of pagibaximab
B6: the binding result in assay [6] was “no binding (tested: 10 µg/mL)”.

B7: Luk26 FN3 protein with carboxyl-terminal poly-histidine sequence (designed binder)
chain: MLPAPKNLVVSRVTEDSARLSWTAPDAAFDSFHIEYAEPWVWGEAIVLTVPGSERSYDLTGLKPGTEYVVFIGGVKGGHNSTPLSAIFTTGGHHHHHH
As for B7, in assay [7], the binding result is “binds”.
